Results on two variants are retold here after IntAct's records for PubMed 20863830.

B1: Phospholipid-transporting ATPase ABCA3 (Homo sapiens), Q99758 (parent)
chain: MAVLRQLALLLWKNYTLQKRKVLVTVLELFLPLLFSGILIWLRLKIQSENVPNATIYPGQSIQELPLFFTFPPPGDTWELAYIPSHSDAAKTVTETVRRALVINMRVRGFPSEKDFEDYIRYDNCSSSVLAAVVFEHPFNHSKEPLPLAVKYHLRFSYTRRNYMWTQTGSFFLKETEGWHTTSLFPLFPNPGPREPTSPDGGEPGYIREGFLAVQHAVDRAIMEYHADAATRQLFQRLTVTIKRFPYPPFIADPFLVAIQYQLPLLLLLSFTYTALTIARAVVQEKERRLKEYMRMMGLSSWLHWSAWFLLFFLFLLIAASFMTLLFCVKVKPNVAVLSRSDPSLVLAFLLCFAISTISFSFMVSTFFSKANMAAAFGGFLYFFTYIPYFFVAPRYNWMTLSQKLCSCLLSNVAMAMGAQLIGKFEAKGMGIQWRDLLSPVNVDDDFCFGQVLGMLLLDSVLYGLVTWYMEAVFPGQFGVPQPWYFFIMPSYWCGKPRAVAGKEEEDSDPEKALRNEYFEAEPEDLVAGIKIKHLSKVFRVGNKDRAAVRDLNLNLYEGQITVLLGHNGAGKTTTLSMLTGLFPPTSGRAYISGYEISQDMVQIRKSLGLCPQHDILFDNLTVAEHLYFYAQLKGLSRQKCPEEVKQMLHIIGLEDKWNSRSRFLSGGMRRKLSIGIALIAGSKVLILDEPTSGMDAISRRAIWDLLQRQKSDRTIVLTTHFMDEADLLGDRIAIMAKGELQCCGSSLFLKQKYGAGYHMTLVKEPHCNPEDISQLVHHHVPNATLESSAGAELSFILPRESTHRFEGLFAKLEKKQKELGIASFGASITTMEEVFLRVGKLVDSSMDIQAIQLPALQYQHERRASDWAVDSNLCGAMDPSDGIGALIEEERTAVKLNTGLALHCQQFWAMFLKKAAYSWREWKMVAAQVLVPLTCVTLALLAINYSSELFDDPMLRLTLGEYGRTVVPFSVPGTSQLGQQLSEHLKDALQAEGQEPREVLGDLEEFLIFRASVEGGGFNERCLVAASFRDVGERTVVNALFNNQAYHSPATALAVVDNLLFKLLCGPHASIVVSNFPQPRSALQAAKDQFNEGRKGFDIALNLLFAMAFLASTFSILAVSERAVQAKHVQFVSGVHVASFWLSALLWDLISFLIPSLLLLVVFKAFDVRAFTRDGHMADTLLLLLLYGWAIIPLMYLMNFFFLGAATAYTRLTIFNILSGIATFLMVTIMRIPAVKLEELSKTLDHVFLVLPNHCLGMAVSSFYENYETRRYCTSSEVAAHYCKKYNIQYQENFYAWSAPGVGRFVASMAASGCAYLILLFLIETNLLQRLRGILCALRRRRTLTELYTRMPVLPEDQDVADERTRILAPSPDSLLHTPLIIKELSKVYEQRVPLLAVDRLSLAVQKGECFGLLGFNGAGKTTTFKMLTGEESLTSGDAFVGGHRISSDVGKVRQRIGYCPQFDALLDHMTGREMLVMYARLRGIPERHIGACVENTLRGLLLEPHANKLVRTYSGGNKRKLSTGIALIGEPAVIFLDEPSTGMDPVARRLLWDTVARARESGKAIIITSHSMEECEALCTRLAIMVQGQFKCLGSPQHLKSKFGSGYSLRAKVQSEGQQEALEEFKAFVDLTFPGSVLEDEHQGMVHYHLPGRDLSWAKVFGILEKAKEKYGVDDYSVSQISLEQVFLSFAHLQPPTAEEGR
partner: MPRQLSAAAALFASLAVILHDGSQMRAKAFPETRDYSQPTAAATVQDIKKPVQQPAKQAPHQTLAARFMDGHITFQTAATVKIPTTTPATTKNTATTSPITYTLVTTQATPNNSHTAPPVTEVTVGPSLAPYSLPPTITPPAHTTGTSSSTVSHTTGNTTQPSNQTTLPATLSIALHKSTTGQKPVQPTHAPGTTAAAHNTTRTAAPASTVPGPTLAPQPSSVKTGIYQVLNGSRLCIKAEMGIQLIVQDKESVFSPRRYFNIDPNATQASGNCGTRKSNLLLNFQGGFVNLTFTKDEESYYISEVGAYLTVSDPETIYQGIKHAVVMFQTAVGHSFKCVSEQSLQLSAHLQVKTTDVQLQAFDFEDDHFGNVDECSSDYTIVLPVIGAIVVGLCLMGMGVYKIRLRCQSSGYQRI
B2: Phospholipid-transporting ATPase ABCA3 (Homo sapiens), Q99758 (parent)
chain: B1 chain
partner: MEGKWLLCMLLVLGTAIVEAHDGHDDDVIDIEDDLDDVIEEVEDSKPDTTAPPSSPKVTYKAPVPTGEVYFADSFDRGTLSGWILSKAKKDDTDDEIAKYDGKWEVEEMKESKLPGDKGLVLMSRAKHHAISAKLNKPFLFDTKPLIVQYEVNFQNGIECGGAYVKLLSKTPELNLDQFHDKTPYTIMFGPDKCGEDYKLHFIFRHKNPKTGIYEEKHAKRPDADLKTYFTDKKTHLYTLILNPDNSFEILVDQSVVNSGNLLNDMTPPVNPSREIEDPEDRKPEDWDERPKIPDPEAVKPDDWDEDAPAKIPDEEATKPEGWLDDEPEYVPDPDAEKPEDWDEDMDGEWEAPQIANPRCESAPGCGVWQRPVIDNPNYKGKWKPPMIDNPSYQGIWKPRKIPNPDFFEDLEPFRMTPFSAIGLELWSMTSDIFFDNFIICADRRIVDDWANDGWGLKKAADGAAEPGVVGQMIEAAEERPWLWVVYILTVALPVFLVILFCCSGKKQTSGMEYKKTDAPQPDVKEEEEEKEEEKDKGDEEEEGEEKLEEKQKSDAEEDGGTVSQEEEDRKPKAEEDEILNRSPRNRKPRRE

In the first assay the parent is B1. Particulars: with lamp3_human LAMP3, Q9UQV4.
In the case of Q215K, the “effect of a mutation on the interaction” value is “disrupting interaction”.

The next assay covers variants of B2. To be noted: with calx_human CANX.
For the variant Q215K, the “effect of a mutation on the interaction” value was “increasing interaction”.
